From paper PMC3915908 (Cell Research, 2013) come the findings set out here.

In experiment [1] the target is T1, C-terminal domain of Pat1 (Pat1C), wild type (S. cerevisiae, UniProt P25644 422-796).
T1 sequence: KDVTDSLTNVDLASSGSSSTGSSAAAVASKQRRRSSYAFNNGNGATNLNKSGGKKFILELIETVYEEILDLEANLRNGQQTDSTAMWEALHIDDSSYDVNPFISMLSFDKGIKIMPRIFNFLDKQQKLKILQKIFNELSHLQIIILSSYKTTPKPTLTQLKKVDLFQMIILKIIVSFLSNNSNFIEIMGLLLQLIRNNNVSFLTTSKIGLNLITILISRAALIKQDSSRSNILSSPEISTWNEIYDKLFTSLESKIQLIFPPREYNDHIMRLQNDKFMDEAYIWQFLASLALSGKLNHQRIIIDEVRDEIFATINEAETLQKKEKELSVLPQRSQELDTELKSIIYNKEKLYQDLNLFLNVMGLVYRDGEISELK
As to the kind of experiment: crystal structure.

The target of experiment [2] is T1, C-terminal domain of Pat1 (Pat1C), wild …. As to the kind of experiment: native gel or EMSA. A general note: In EMSA bound probe runs differently from free probe, usually more slowly.

B1: Lsm2 (natural protein)
chain: MLFFSFFKTLVDQEVVVELKNDIEIKGTLQSVDQFLNLKLDNISCTDEKKYPHLGSVRNIFIRGSTVRYVYLNKNMVDTNLLQDATRREVMTERK
B1: the binding result in experiment [1] is recorded as “binds”.

B2: Lsm2-3 subcomplex, wild type (complex)
chain 1: MLFFSFFKTLVDQEVVVELKNDIEIKGTLQSVDQFLNLKLDNISCTDEKKYPHLGSVRNIFIRGSTVRYVYLNKNMVDTNLLQDATRREVMTERK
chain 2: METPLDLLKLNLDERVYIKLRGARTLVGTLQAFDSHCNIVLSDAVETIYQLNNEELSESERRCEMVFIRGDTVTLISTPSEDDDGAVEI
For the molecule B2, the binding result in experiment [2] was “binds”.
